Reference: PMC7049166 (Proceedings of the National Academy of Sciences of the …, 2020)
Values joined by “and” are separate entries in the source; they are usually repeats but may differ in a detail not shown here. Equal entries are not always repeated.

How the values were obtained:
crystal structure = target: the molecule itself; assay: crystal structure
[1] = target: the molecule itself; assay: cell-based or functional assay
SEC-MALS = target: the molecule itself; assay: SEC-MALS
AUC = target: the molecule itself; assay: AUC
cross-linking = target: the molecule itself; assay: cross-linking

B1: S. cerevisiae short Mgm1 (s-Mgm1), truncated version, residues 184-881 (domain or fragment, UniProt P32266 184-881, looked up)
chain: MLNLTKQMIEIRTILNKVDSSSAHLTLPSIVVIGSQSSGKSSVLESIVGREFLPKGSNMVTRRPIELTLVNTPNSNNVTADFPSMRLYNIKDFKEVKRMLMELNMAVPTSEAVSEEPIQLTIKSSRVPDLSLVDLPGYIQVEAADQPIELKTKIRDLCEKYLTAPNIILAISAADVDLANSSALKASKAADPKGLRTIGVITKLDLVDPEKARSILNNKKYPLSMGYVGVITKTPSSINRKHLGLFGEAPSSSLSGIFSKGQHGQSSGEENTNGLKQIVSHQFEKAYFKENKKYFTNCQVSTKKLREKLIKILEISMSNALEPTSTLIQQELDDTSYLFKVEFNDRHLTPKSYLLNNIDVLKLGIKEFQEKFHRNELKSILRAELDQKVLDVLATRYWKDDNLQDLSSSKLESDTDMLYWHKKLELASSGLTKMGIGRLSTMLTTNAILKELDNILESTQLKNHELIKDLVSNTAINVLNSKYYSTADQVENCIKPFKYEIDLEERDWSLARQHSINLIKEELRQCNSRYQAIKNAVGSKKLANVMGYLENESNLQKETLGMSKLLLERGSEAIFLDKRCKVLSFRLKMLKNKCHSTIEKDRCPEVFLSAVSDKLTSTAVLFLNVELLSDFFYNFPIELDRRLTLLGDEQVEMFAKEDPKISRHIELQKRKELLELALEKIDSILVFKKSYKGVSKNL
Q: Which “stoichiometry N” value (crystal structure) does the source give for B1 here?
A: Its value is 3.

Q: What about the “stimulation of s-Mgm1 GTPase activity by liposomes with 10% or 20% cardiolipin” value [1] of the same protein?
A: Its value is 8 fold.

Q: And the “stoichiometry N” value (SEC-MALS)?
A: The value was 2.

B2: s-Mgm1 R712A/E751A mutant (domain or fragment, S. cerevisiae, UniProt P32266 184-881, looked up)
chain: MLNLTKQMIEIRTILNKVDSSSAHLTLPSIVVIGSQSSGKSSVLESIVGREFLPKGSNMVTRRPIELTLVNTPNSNNVTADFPSMRLYNIKDFKEVKRMLMELNMAVPTSEAVSEEPIQLTIKSSRVPDLSLVDLPGYIQVEAADQPIELKTKIRDLCEKYLTAPNIILAISAADVDLANSSALKASKAADPKGLRTIGVITKLDLVDPEKARSILNNKKYPLSMGYVGVITKTPSSINRKHLGLFGEAPSSSLSGIFSKGQHGQSSGEENTNGLKQIVSHQFEKAYFKENKKYFTNCQVSTKKLREKLIKILEISMSNALEPTSTLIQQELDDTSYLFKVEFNDRHLTPKSYLLNNIDVLKLGIKEFQEKFHRNELKSILRAELDQKVLDVLATRYWKDDNLQDLSSSKLESDTDMLYWHKKLELASSGLTKMGIGRLSTMLTTNAILKELDNILESTQLKNHELIKDLVSNTAINVLNSKYYSTADQVENCIKPFKYEIDLEERDWSLARQHSINLIKEELRQCNSAYQAIKNAVGSKKLANVMGYLENESNLQKETLGMSKLLLARGSEAIFLDKRCKVLSFRLKMLKNKCHSTIEKDRCPEVFLSAVSDKLTSTAVLFLNVELLSDFFYNFPIELDRRLTLLGDEQVEMFAKEDPKISRHIELQKRKELLELALEKIDSILVFKKSYKGVSKNL
Q: Does B2 bind (AUC)?
A: Result: binds

B3: HA-tagged s-Mgm1 S397C/E751C mutant (with 4CS mutations C341S, C676S, C709S, C763S) (domain or fragment, S. cerevisiae, UniProt P32266 184-881, looked up)
chain: MLNLTKQMIEIRTILNKVDSSSAHLTLPSIVVIGSQSSGKSSVLESIVGREFLPKGSNMVTRRPIELTLVNTPNSNNVTADFPSMRLYNIKDFKEVKRMLMELNMAVPTSEAVSEEPIQLTIKSSRVPDLSLVDLPGYIQVEAADQPIELKTKIRDLSEKYLTAPNIILAISAADVDLANSSALKASKAADPKGLRTIGVITKLDLVDPEKARCILNNKKYPLSMGYVGVITKTPSSINRKHLGLFGEAPSSSLSGIFSKGQHGQSSGEENTNGLKQIVSHQFEKAYFKENKKYFTNCQVSTKKLREKLIKILEISMSNALEPTSTLIQQELDDTSYLFKVEFNDRHLTPKSYLLNNIDVLKLGIKEFQEKFHRNELKSILRAELDQKVLDVLATRYWKDDNLQDLSSSKLESDTDMLYWHKKLELASSGLTKMGIGRLSTMLTTNAILKELDNILESTQLKNHELIKDLVSNTAINVLNSKYYSTADQVENSIKPFKYEIDLEERDWSLARQHSINLIKEELRQSNSRYQAIKNAVGSKKLANVMGYLENESNLQKETLGMSKLLLCRGSEAIFLDKRSKVLSFRLKMLKNKCHSTIEKDRCPEVFLSAVSDKLTSTAVLFLNVELLSDFFYNFPIELDRRLTLLGDEQVEMFAKEDPKISRHIELQKRKELLELALEKIDSILVFKKSYKGVSKNL
Q: B3 was tested. Which “stoichiometry N” value (cross-linking) did it give?
A: Its value is 2 and 3.
